Source: patent US20030082185A1

Biological target: HIV-1 JR-FL gp120 envelope glycoprotein (HIV-1 JR-FL)
Assay: cell-based or functional assay

CD4-IgG2 (from UniProt P01730 26-204; P01730 26-204) (Fc fusion)
K (equal to the IC50) for inhibition of HIV-1 env-mediated membrane fusion, RET assay, HeLa-EnvJR-FL and PM1 cells: 0.31 µg/mL
